This passage reports stoichiometry N results from PMC6193965.

The test has as its target T1, mouse MILL2 extracellular domain (heavy chain) (mouse).
T1 sequence (Q8HWE5 whole entry, looked up): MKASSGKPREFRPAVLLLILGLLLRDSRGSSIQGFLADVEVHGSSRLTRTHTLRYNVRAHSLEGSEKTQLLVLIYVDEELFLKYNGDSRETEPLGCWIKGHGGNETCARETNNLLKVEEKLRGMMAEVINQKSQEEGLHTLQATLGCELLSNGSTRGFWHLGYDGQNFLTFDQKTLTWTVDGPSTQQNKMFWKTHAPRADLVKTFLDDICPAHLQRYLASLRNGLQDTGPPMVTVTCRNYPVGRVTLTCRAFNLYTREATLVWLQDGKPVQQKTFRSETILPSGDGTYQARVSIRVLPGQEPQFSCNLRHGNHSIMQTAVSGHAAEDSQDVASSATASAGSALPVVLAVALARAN
The test is described as follows: SEC; MILL2 refolded by rapid dilution with 10 μM refolded β2m; complex purified on Superdex 75 and then by cation exchange (RESOURCE S); stoichiometry of the purified complex (Supplementary Fig. 1c). Background: Size exclusion chromatography separates by hydrodynamic size, large species first.

Usually stoichiometry N stands for a count of units in the complex or per binding partner.

On to “mouse β2-microglobulin (from UniProt P01887 21-119) (natural protein)”, for which the stoichiometry N is 1.
